Measurements from paper doi:10.1101/2021.09.12.459968.
“And” between values parts separate entries of the source, which are not always exact repeats. Equal values may be shown once.

Assays:
[1] = molecular target: T1, full-length mouse NLRP3 (FLAG-mScarlet tag removed), double ring cage (mouse), Q8R4B8; test: cryo-EM structure; details: remark: other sources report otherwise
T1 chain: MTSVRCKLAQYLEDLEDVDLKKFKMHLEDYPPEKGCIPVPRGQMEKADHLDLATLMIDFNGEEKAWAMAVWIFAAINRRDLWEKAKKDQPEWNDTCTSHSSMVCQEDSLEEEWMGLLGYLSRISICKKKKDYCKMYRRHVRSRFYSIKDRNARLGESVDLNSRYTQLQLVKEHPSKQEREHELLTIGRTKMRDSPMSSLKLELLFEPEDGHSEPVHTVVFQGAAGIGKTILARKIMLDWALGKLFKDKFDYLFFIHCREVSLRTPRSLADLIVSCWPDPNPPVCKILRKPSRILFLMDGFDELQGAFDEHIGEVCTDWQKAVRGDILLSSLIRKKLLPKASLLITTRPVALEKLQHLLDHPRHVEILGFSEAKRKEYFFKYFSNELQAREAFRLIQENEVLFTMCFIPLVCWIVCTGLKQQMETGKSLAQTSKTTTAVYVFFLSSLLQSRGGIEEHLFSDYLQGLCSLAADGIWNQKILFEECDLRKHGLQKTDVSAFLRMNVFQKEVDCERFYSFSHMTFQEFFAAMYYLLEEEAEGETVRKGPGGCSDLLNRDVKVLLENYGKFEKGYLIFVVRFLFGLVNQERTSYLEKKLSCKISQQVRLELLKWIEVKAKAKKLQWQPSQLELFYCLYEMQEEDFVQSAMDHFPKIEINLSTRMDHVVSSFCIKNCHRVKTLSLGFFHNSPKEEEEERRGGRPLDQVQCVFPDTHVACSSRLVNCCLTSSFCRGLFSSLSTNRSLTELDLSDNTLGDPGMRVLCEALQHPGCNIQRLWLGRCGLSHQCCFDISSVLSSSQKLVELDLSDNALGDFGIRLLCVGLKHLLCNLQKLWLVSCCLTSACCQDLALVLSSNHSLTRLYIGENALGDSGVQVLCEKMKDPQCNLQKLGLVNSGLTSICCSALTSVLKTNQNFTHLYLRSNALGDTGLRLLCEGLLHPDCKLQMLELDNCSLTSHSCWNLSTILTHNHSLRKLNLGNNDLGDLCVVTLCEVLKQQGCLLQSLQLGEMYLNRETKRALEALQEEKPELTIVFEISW

[2] = molecular target: T1, full-length mouse NLRP3 (FLAG-mScarlet …); test: cryo-EM structure; details: remark: other sources report otherwise

B1: full-length mouse NLRP3 (FLAG-mScarlet tag removed), double ring cage, Q8R4B8 1-1033 (natural protein)
chain: T1 chain
stoichiometry N [1]: 12 and 14 and 16
stoichiometry N [2]: 12
